Measured values reported in the supplement of paper PMC9112550, “Optimization of the antimicrobial peptide Bac7 by deep mutational scanning” (BMC Biology, 2022).

test system: Escherichia coli TOP10; assay: shrunken log2 fold change of peptide-encoding DNA abundance (4.5 h post-induction vs induction); higher = less antimicrobial activity (less host growth inhibition); details: time post-induction: 4.5 h; library: site-saturation at positions 5, 18, 19, 20
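Further: peptides expressed intracellularly from a pBAD plasmid library in pooled LB shake-flask culture, induced with 0.3% L-arabinose, DNA abundance read by NGS, three biological replicates, DESeq2 with apeglm shrinkage.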

Sequence | shrunken log2 fold change
RRIRARPPRLPRPRPRPMREPRP | 0.844
RRIRFRPPRLPRPRPRPEWYPRP | -0.361
RRIRKRPPRLPRPRPRPCLAPRP | 0.433
RRIRMRPPRLPRPRPRPRRGPRP | 1.09
RRIRKRPPRLPRPRPRPPCYPRP | 0.202
RRIRGRPPRLPRPRPRPFHWPRP | 0.134
RRIRIRPPRLPRPRPRPHTTPRP | 0.0536
RRIRARPPRLPRPRPRPVVDPRP | 0.399
RRIRPRPPRLPRPRPRPYDSPRP | -0.977
RRIRRRPPRLPRPRPRPLDCPRP | 0.107
RRIRIRPPRLPRPRPRPSWPPRP | -0.227
RRIRCRPPRLPRPRPRPNHWPRP | -0.0209
RRIRMRPPRLPRPRPRPIVSPRP | -0.0362
RRIRYRPPRLPRPRPRPVPLPRP | -0.17
RRIRPRPPRLPRPRPRPFDQPRP | -0.295
RRIRKRPPRLPRPRPRPPKCPRP | 0.069
RRIRQRPPRLPRPRPRPALWPRP | 0.144
RRIRHRPPRLPRPRPRPAYMPRP | 0.0834
RRIRERPPRLPRPRPRPAGYPRP | 0.0991
RRIRFRPPRLPRPRPRPEVTPRP | -0.0331

Sequence | shrunken log2 fold change
RRIRMRPPRLPRPRPRPCLLPRP | -0.0289
RRIRLRPPRLPRPRPRPNHFPRP | -0.349
RRIRCRPPRLPRPRPRPVRSPRP | 0.549
RRIRNRPPRLPRPRPRPAGGPRP | 0.16
RRIRYRPPRLPRPRPRPESRPRP | -0.12
RRIRKRPPRLPRPRPRPGCEPRP | 1.31
RRIRLRPPRLPRPRPRPQRSPRP | 0.16
RRIRQRPPRLPRPRPRPECKPRP | -0.0182
RRIRQRPPRLPRPRPRPMCTPRP | -0.173
RRIRERPPRLPRPRPRPHVDPRP | -0.00242
RRIRLRPPRLPRPRPRPNCGPRP | -0.0908
RRIRQRPPRLPRPRPRPKKGPRP | 0.124
RRIRWRPPRLPRPRPRPGCWPRP | 1.09
RRIRFRPPRLPRPRPRPDRFPRP | 0.042
RRIRRRPPRLPRPRPRPAYEPRP | 0.138
RRIRNRPPRLPRPRPRPPLVPRP | 0.089
RRIRTRPPRLPRPRPRPGITPRP | -0.104
RRIRLRPPRLPRPRPRPNKWPRP | -0.066
RRIRHRPPRLPRPRPRPMSHPRP | -0.0479
RRIRSRPPRLPRPRPRPHPCPRP | 0.0687

Sequence | shrunken log2 fold change
RRIRKRPPRLPRPRPRPDLTPRP | -0.000918
RRIRWRPPRLPRPRPRPSTWPRP | -0.148
RRIRRRPPRLPRPRPRPAEQPRP | 0.275
RRIRERPPRLPRPRPRPNNEPRP | -0.525
RRIRWRPPRLPRPRPRPISEPRP | 0.00628
RRIRARPPRLPRPRPRPQQYPRP | -0.203
RRIRSRPPRLPRPRPRPLMWPRP | 0.169
RRIRQRPPRLPRPRPRPPLEPRP | 0.949
RRIRVRPPRLPRPRPRPGPEPRP | 0.22
RRIRHRPPRLPRPRPRPLARPRP | 0.113
RRIRGRPPRLPRPRPRPTMPPRP | 0.425
RRIRFRPPRLPRPRPRPTCWPRP | 0.0659
RRIRLRPPRLPRPRPRPWMLPRP | -0.0153
RRIRFRPPRLPRPRPRPLITPRP | -0.503
RRIRDRPPRLPRPRPRPMKWPRP | 0.139
RRIRQRPPRLPRPRPRPDIEPRP | -0.32
RRIRLRPPRLPRPRPRPNEQPRP | -0.0127
RRIRWRPPRLPRPRPRPHCNPRP | -0.465
RRIRERPPRLPRPRPRPVMTPRP | -0.221
RRIRRRPPRLPRPRPRPIQRPRP | 0.168
